# Earlier results, collected in patent US20040120897A1, “Method for administering insulinotropic peptides” (priority 1998, published 2004).
# Conditions: calculated, background statement
row,Substance,absorption value after delivery through the lungs
1,parathyroid hormone (1-34): peptide hormone cited in the background for its pulmonary absorption value,fifteen
2,glycosylated α1-antitrypsin: protein cited in the background for its pulmonary absorption value,48 h
